Experimental data reported in article PMC5984625, “Dynamic structural states of ClpB involved in its disaggregation function” (Nature Communications, 2018).
Several values for one entry are separate records, joined by “and”; a condition that tells them apart may be missing. Identical values can stand only once.

Legend:
[1] = molecular target: N-terminal deletion mutant of TClpB (ΔN-TClpB) (Thermus thermophilus); assay: AUC; sedimentation velocity, 20 °C, 42,000 rpm, 50 mM MOPS pH 7.5, 50 mM KCl, 5 mM MgCl2, 0.5 and 2.0 mg/mL protein, with 2 mM ATPγS (preincubated 55 °C 1 min)
[2] = molecular target: N-terminal deletion mutant of TClpB (ΔN-TClpB) (Thermus thermophilus); assay: AUC; sedimentation velocity, 20 °C, 42,000 rpm, 50 mM MOPS pH 7.5, 50 mM KCl, 5 mM MgCl2, 0.5 and 2.0 mg/mL protein, with 20 mM ATP (preincubated 55 °C 1 min)
[3] = molecular target: N-terminal deletion mutant of TClpB (ΔN-TClpB) (Thermus thermophilus); assay: native MS; incubated at 55 °C with 2 mM ATP or ATPγS for 1 min, exchanged into 150 mM ammonium acetate pH 7.5 with 100 µM ATP or ATPγS at 4 °C; nanoflow electrospray
[4] = molecular target: N-terminal deletion mutant of TClpB (ΔN-TClpB) (Thermus thermophilus); assay: AUC; sedimentation velocity, 20 °C, 42,000 rpm, 50 mM MOPS pH 7.5, 50 mM KCl, 5 mM MgCl2, 0.5 and 2.0 mg/mL protein, with 20 mM ADP (preincubated 55 °C 1 min)
[5] = molecular target: N-terminal deletion mutant of TClpB (ΔN-TClpB) (Thermus thermophilus); assay: high-speed atomic force microscopy (HS-AFM); self-association; sample preincubated with 2 mM ATP at 55 °C for 1 min, adsorbed on bare mica, imaged at 25 °C in 50 mM MOPS pH 7.5, 20 mM KCl, 5 mM MgCl2 with ATP (10 μM to 2 mM for ΔN-TClpB, 0.5 mM for full length, 1 mM for the mutants; also 1 mM ATPγS or ADP)
[6] = tested on: T1, Nc1ncnc2c1ncn2[C@@H]1O[C@H](COP(=O)(O)OP(=O)(O)OP(=O)(O)O)[C@@H](O)[C@H]1O; assay: purified protein; format: biochemical, Thermus thermophilus; conditions: Hill equation fit, Hill coefficient 2.6 ± 0.6, pH 7.5, 20 mM KCl, 5 mM MgCl2, 25 °C
T1 construct: N-terminal domain deletion (AAA1, M-domain and AAA2 kept); from plasmid pMCB1; expressed in E. coli BL21(DE3) or KRX; purified; hexamer and smaller oligomers

[7] = molecular target: ΔN-TClpB hyperactive mutant Y494D (Thermus thermophilus); assay: high-speed atomic force microscopy (HS-AFM); self-association; sample preincubated with 2 mM ATP at 55 °C for 1 min, adsorbed on bare mica, imaged at 25 °C in 50 mM MOPS pH 7.5, 20 mM KCl, 5 mM MgCl2 with ATP (10 μM to 2 mM for ΔN-TClpB, 0.5 mM for full length, 1 mM for the mutants; also 1 mM ATPγS or ADP)
[8] = molecular target: ΔN-TClpB repressed mutant E423A (Thermus thermophilus); assay: as above

Chain of ΔN-TClpB (Thermus thermophilus HB8) (chain, as listed by the source mutant): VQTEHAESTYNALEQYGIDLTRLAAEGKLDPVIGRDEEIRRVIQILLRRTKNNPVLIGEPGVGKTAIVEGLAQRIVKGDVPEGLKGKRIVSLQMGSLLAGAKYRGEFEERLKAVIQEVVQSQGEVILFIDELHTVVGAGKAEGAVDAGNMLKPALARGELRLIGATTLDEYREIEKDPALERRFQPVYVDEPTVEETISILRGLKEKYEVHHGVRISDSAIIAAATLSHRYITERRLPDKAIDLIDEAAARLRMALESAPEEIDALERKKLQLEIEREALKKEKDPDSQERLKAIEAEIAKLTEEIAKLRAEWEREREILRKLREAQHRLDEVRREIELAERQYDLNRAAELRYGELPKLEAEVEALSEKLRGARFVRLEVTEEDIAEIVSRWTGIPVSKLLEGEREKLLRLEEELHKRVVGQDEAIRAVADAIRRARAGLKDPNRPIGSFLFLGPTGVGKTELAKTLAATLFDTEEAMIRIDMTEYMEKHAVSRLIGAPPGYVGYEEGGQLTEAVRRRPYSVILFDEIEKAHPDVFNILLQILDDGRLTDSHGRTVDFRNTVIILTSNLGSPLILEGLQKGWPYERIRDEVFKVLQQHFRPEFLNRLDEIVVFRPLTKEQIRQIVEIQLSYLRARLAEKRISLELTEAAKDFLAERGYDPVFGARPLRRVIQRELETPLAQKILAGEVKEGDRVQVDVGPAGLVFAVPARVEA

Which results are given for “N-terminal deletion mutant of TClpB (ΔN-TClpB) (domain or fragment)”?
stoichiometry N [1]: 6; stoichiometry N [2]: 6 and 3; stoichiometry N [3]: 2 and 6; stoichiometry N [4]: < 6; stoichiometry N [5]: 6 and 3 to 8 (2×)

ΔN-TClpB (Thermus thermophilus HB8) was tested. Which K0.5 [6] did it give?
The K0.5 was 0.16 ± 0.02 mM.

How did the stoichiometry N [7] turn out when “ΔN-TClpB hyperactive mutant Y494D (domain or fragment)” was run?
Its stoichiometry N is 6.

Which stoichiometry N [8] does the source give for “ΔN-TClpB repressed mutant E423A (domain or fragment)” here?
Its stoichiometry N is 6.
